167 variants from the Human Domainome abundance scans (Beltran et al. 2025) can be followed below.

± gives the uncertainty stated by the source.

B1: Zinc finger MYM-type protein 3, residues 589 to 668; numbered along this chain, Q14202 (parent)
chain: LSCHYCHSLFSGKPEVLDWQDQVFQFCCRDCCEDFKRLRGVVSQCEHCRQEKLLHEKLRFSGVEKSFCSEGCVLLYKQDF

The variants in the series derive from B1. The series can be described thus: abundance fitness (aPCA) (normalised: wild type 0, dead -1); higher = more abundant; growth selection in yeast, the domain comes from the species named. The note with it: Homo sapiens.
Regarding F10Q, the abundance fitness is -0.685 ± 0.065.

F10W: the abundance fitness was -0.298 ± 0.054.

Consider F10D, for which the abundance fitness is -0.623 ± 0.079.

Regarding Q78D, the abundance fitness worked out at 0.567 ± 0.22.

For the variant Q78W, the abundance fitness was -0.698 ± 0.21.

Turning to Q78E, the abundance fitness was 0.018 ± 0.17.

Consider Q78A, for which the abundance fitness was found to be 0.034 ± 0.11.

With Q78R, the abundance fitness was 0.113 ± 0.076.

In the case of K65E, the abundance fitness is -1.07 ± 0.26.

For K65V, the abundance fitness is -0.317 ± 0.19.

As for K65T, the abundance fitness is -0.495 ± 0.28.

For K65L, the abundance fitness was -0.441 ± 0.2.

For the variant R49K, the abundance fitness is -0.084 ± 0.19.

Regarding R29S, the abundance fitness stood at 0.009 ± 0.044.

For R29I, the abundance fitness is 0.014 ± 0.055.

Consider R29M, for which the abundance fitness worked out at 0.235 ± 0.05.

Regarding R29F, the abundance fitness stood at 0.095 ± 0.056.

Regarding C32L, the abundance fitness is -0.027 ± 0.042.

With C32N, the abundance fitness was -0.239 ± 0.14.

C32D: the abundance fitness was -0.521 ± 0.11.

As for C32I, the abundance fitness is -0.113 ± 0.08.

Take S43W: the abundance fitness was -0.889 ± 0.29.

C31S: the abundance fitness was -0.986 ± 0.13.

For the variant C31V, the abundance fitness is -1.14 ± 0.15.

For C31G, the abundance fitness is -0.8 ± 0.078.

For C31E, the abundance fitness was -0.573 ± 0.096.

For the variant C31Q, the abundance fitness was -0.668 ± 0.1.

Take C31T: the abundance fitness was -1.02 ± 0.15.

In the case of C31R, the abundance fitness is -0.901 ± 0.08.

On to L1F, for which the abundance fitness stood at 0.279 ± 0.073.

For the variant L1C, the abundance fitness was determined as 0.004 ± 0.074.

Take L1N: the abundance fitness turned out to be 0.239 ± 0.11.

On to L1Y, for which the abundance fitness was 0.047 ± 0.078.

On to F35P, for which the abundance fitness is -0.842 ± 0.077.

As to F35G, the abundance fitness was -0.317 ± 0.042.

In the case of F35V, the abundance fitness was -0.587 ± 0.048.

Consider W19A, for which the abundance fitness is 0.175 ± 0.044.

In the case of W19Q, the abundance fitness was determined as 0.225 ± 0.066.

With W19G, the abundance fitness was 0.105 ± 0.04.

Turning to W19T, the abundance fitness was found to be 0.326 ± 0.051.

On to V23T, for which the abundance fitness amounted to 0.175 ± 0.047.

Regarding V23N, the abundance fitness stood at 0.169 ± 0.056.

Consider V23W, for which the abundance fitness was 0.134 ± 0.044.

Regarding V23E, the abundance fitness worked out at 0.227 ± 0.049.

Take C27K: the abundance fitness is -0.882 ± 0.096.

With C27Q, the abundance fitness was -0.653 ± 0.075.

In the case of C27M, the abundance fitness is -0.472 ± 0.07.

Regarding C27N, the abundance fitness is -0.706 ± 0.099.

C27A: the abundance fitness was -0.673 ± 0.055.

In the case of C27V, the abundance fitness was -0.692 ± 0.06.

As to C27R, the abundance fitness is -0.756 ± 0.055.

Regarding D30Y, the abundance fitness is -0.164 ± 0.091.

Take D30V: the abundance fitness was found to be 0.109 ± 0.04.

D30N: the abundance fitness was -0.069 ± 0.1.

Turning to D30F, the abundance fitness is -0.263 ± 0.076.

Regarding R37D, the abundance fitness was -0.238 ± 0.19.

For the variant R37W, the abundance fitness was -0.065 ± 0.27.

Consider R37C, for which the abundance fitness was -0.374 ± 0.21.

In the case of R37S, the abundance fitness worked out at 0.123 ± 0.091.

With Y5N, the abundance fitness was 0.021 ± 0.071.

Regarding Y5R, the abundance fitness stood at 0.19 ± 0.037.

Turning to Y5M, the abundance fitness was 0.313 ± 0.047.

In the case of Y5C, the abundance fitness amounted to 0.01 ± 0.055.

With Y5K, the abundance fitness worked out at 0.294 ± 0.046.

On to Y5I, for which the abundance fitness is -0.061 ± 0.062.

As to F67R, the abundance fitness was -0.497 ± 0.12.

As for F67K, the abundance fitness is -0.391 ± 0.16.

As to F67M, the abundance fitness is -0.567 ± 0.29.

F67W: the abundance fitness was -0.302 ± 0.32.

For the variant F67C, the abundance fitness turned out to be 0.283 ± 0.18.

Regarding Q20L, the abundance fitness is 0.08 ± 0.06.

Take Q20V: the abundance fitness is 0.032 ± 0.049.

As to Q20N, the abundance fitness came to 0.348 ± 0.063.

For the variant Q20Y, the abundance fitness was -0.3 ± 0.21.

For Q20G, the abundance fitness is 0.334 ± 0.043.

Take Q20R: the abundance fitness stood at 0.151 ± 0.043.

In the case of Q20P, the abundance fitness turned out to be 0.179 ± 0.091.

In the case of Q20D, the abundance fitness was found to be 0.456 ± 0.054.

For the variant E56Q, the abundance fitness was -0.112 ± 0.14.

As to C6Q, the abundance fitness is -0.892 ± 0.12.

On to Q22D, for which the abundance fitness turned out to be 0.297 ± 0.048.

As for Q22G, the abundance fitness is 0.253 ± 0.041.

Turning to Q22A, the abundance fitness is 0.26 ± 0.04.

As to Q22R, the abundance fitness worked out at 0.165 ± 0.038.

On to Q22V, for which the abundance fitness came out at 0.288 ± 0.045.

Regarding Q22K, the abundance fitness was -0.075 ± 0.058.

With Q22I, the abundance fitness is -0.068 ± 0.11.

As to Q22M, the abundance fitness was found to be 0.309 ± 0.054.

In the case of Q22N, the abundance fitness was found to be 0.255 ± 0.059.

As for Q22S, the abundance fitness is 0.24 ± 0.043.

In the case of Q22T, the abundance fitness stood at 0.174 ± 0.044.

On to V73A, for which the abundance fitness was found to be 0.236 ± 0.086.

As for V73G, the abundance fitness was -0.188 ± 0.11.

With V73R, the abundance fitness was found to be 0.149 ± 0.082.

With V73S, the abundance fitness worked out at 0.167 ± 0.093.

For the variant S8L, the abundance fitness stood at 0.062 ± 0.042.

In the case of S8T, the abundance fitness turned out to be 0.246 ± 0.05.

As to S8M, the abundance fitness turned out to be 0.355 ± 0.05.

As for S8G, the abundance fitness turned out to be 0.248 ± 0.041.

On to S8H, for which the abundance fitness worked out at 0.188 ± 0.074.

Regarding S8F, the abundance fitness is -0.039 ± 0.084.

With S8V, the abundance fitness stood at 0.374 ± 0.04.

Regarding S8R, the abundance fitness came out at 0.332 ± 0.038.

S8N: the abundance fitness is 0.297 ± 0.072.

Regarding S66Q, the abundance fitness was -0.618 ± 0.35.

On to S66L, for which the abundance fitness was 0.068 ± 0.12.

In the case of S66E, the abundance fitness was -0.473 ± 0.18.

Turning to C68S, the abundance fitness is -0.619 ± 0.21.

For V41I, the abundance fitness amounted to 0.195 ± 0.24.

On to V41L, for which the abundance fitness was -0.181 ± 0.32.

For the variant V16Y, the abundance fitness was -0.041 ± 0.14.

Consider V16I, for which the abundance fitness was -0.121 ± 0.083.

With V16N, the abundance fitness is -0.033 ± 0.1.

Take V16H: the abundance fitness was -0.044 ± 0.057.

For the variant V16K, the abundance fitness is -0.11 ± 0.058.

In the case of V16G, the abundance fitness was -0.208 ± 0.044.

Turning to R39M, the abundance fitness is 0.032 ± 0.39.

R39E: the abundance fitness was -0.159 ± 0.39.

For L75N, the abundance fitness came to 0.227 ± 0.14.

Consider L75V, for which the abundance fitness was -0.551 ± 0.15.

For the variant L75D, the abundance fitness worked out at 0.492 ± 0.17.

On to Y76W, for which the abundance fitness is -0.542 ± 0.22.

Regarding Y76L, the abundance fitness is -0.663 ± 0.24.

For Y76H, the abundance fitness came out at 0.329 ± 0.24.

For the variant Y76N, the abundance fitness was found to be 0.757 ± 0.38.

Turning to Y76S, the abundance fitness was -0.473 ± 0.16.

L9T: the abundance fitness was determined as 0.083 ± 0.042.

As to L9E, the abundance fitness is -0.021 ± 0.044.

Consider L74Y, for which the abundance fitness is -0.446 ± 0.38.

Turning to L74S, the abundance fitness was -0.081 ± 0.19.

For L74W, the abundance fitness is 0.081 ± 0.13.

For L74D, the abundance fitness was 0.145 ± 0.13.

L74A: the abundance fitness turned out to be 0.404 ± 0.077.

In the case of L74T, the abundance fitness is 0.151 ± 0.13.

As for L74I, the abundance fitness was -0.381 ± 0.35.

L74E: the abundance fitness was found to be 0.662 ± 0.091.

As for K57E, the abundance fitness is -0.256 ± 0.17.

Regarding K57Q, the abundance fitness is -0.131 ± 0.14.

K57F: the abundance fitness is -0.16 ± 0.41.

Turning to K57V, the abundance fitness was -0.192 ± 0.12.

In the case of K57A, the abundance fitness was -0.487 ± 0.14.

Consider K57C, for which the abundance fitness was -0.433 ± 0.41.

With V42E, the abundance fitness was -0.041 ± 0.12.

As to V42R, the abundance fitness was -0.085 ± 0.088.

As for H4Q, the abundance fitness worked out at 0.088 ± 0.046.

For H4V, the abundance fitness stood at 0.054 ± 0.04.

H4W: the abundance fitness came to 0.079 ± 0.045.

H4I: the abundance fitness was -0.064 ± 0.073.

As to H4L, the abundance fitness was -0.05 ± 0.04.

Take C72W: the abundance fitness was -0.53 ± 0.17.

Turning to S61R, the abundance fitness is -0.137 ± 0.11.

In the case of S61D, the abundance fitness turned out to be 0.665 ± 0.13.

Take F60L: the abundance fitness is 0.103 ± 0.11.

As to F60G, the abundance fitness was -0.314 ± 0.097.

For the variant Q44T, the abundance fitness was 0.959 ± 0.066.

As to Q44E, the abundance fitness amounted to 0.49 ± 0.088.

Consider Q44W, for which the abundance fitness was 0.53 ± 0.095.

Take Q44Y: the abundance fitness was 1.13 ± 0.34.

For Q44D, the abundance fitness worked out at 0.204 ± 0.18.

For Q44K, the abundance fitness was determined as 1.04 ± 0.083.

As to Q44M, the abundance fitness is 0.576 ± 0.14.

Consider Q44P, for which the abundance fitness came out at 0.818 ± 0.099.

F80P: the abundance fitness is 0.525 ± 0.22.

With F80R, the abundance fitness was 0.522 ± 0.082.

Turning to E51A, the abundance fitness is -0.394 ± 0.16.

As to E51V, the abundance fitness was -0.143 ± 0.12.

For K52E, the abundance fitness was -0.785 ± 0.23.
